Positions count from the first letter of the chain named.
B1: CL1 VH (SEQ ID NO: 7) / CL1 VL (SEQ ID NO: 8), scFv (scFv, part only; not given: linker, domain order, tag, V domains shown, not shown: another chain or arm of the molecule; small tags and cut ends)
VH: QVQLVQSGVEVKKPGASVKVSCKASGYTFTNYYMYWVRQAPGQGLEWMGGINPSNGGTNFNEKFKNRVTLTTDSSTTTAYMELKSLQFDDTAVYYCAARDYRLDMGFEFWGQGTTVTVSS
VL: EIVLTQSPATLSLSPGERATLSCRASKGVSTSGYSYLHWYQQKPGQAPRLLIYLASYLESGVPARFSGSGSGTDFTLTISSLEPEDFAVYYCQHAYDLPLTFGGGTKVEIK
B2: CL1 VH (SEQ ID NO: 7) / CL5 VL (SEQ ID NO: 10), scFv (scFv, part only; not given: linker, domain order, tag, V domains shown, not shown: another chain or arm of the molecule; small tags and cut ends)
VH: B1 VH
VL: B1 VL with A95S
B3: CL1 VH (SEQ ID NO: 7) / CL9 VL (SEQ ID NO: 12), scFv (scFv, part only; not given: linker, domain order, tag, V domains shown, not shown: another chain or arm of the molecule; small tags and cut ends)
VH: B1 VH
VL: B1 VL with A95S, D97G, L100V
B4: CL1 VH (SEQ ID NO: 7) / CL5 VL (SEQ ID NO: 10), IgG4 (antibody, V domains shown)
VH: B1 VH
VL: B1 VL with A95S
notes: Form IgG4
B5: antibody CL1 (antibody, human IgG4 S228P, kappa, V domains shown)
VH: B1 VH
VL: EIVLTQSPATLSLSPGERATLSCRASKGVSTSGYSYLHWYQQKPGQAPRLLIYLASYLESGVPARFSGSGSGTDFTLTISSLEPEDFAVYYCQHAYDLPLTFGGGTKVEIKR
notes: also called anti-hPD-1 antibody CL1; CL1 VH / CL1 VL IgG4
B6: CL1 VH (SEQ ID NO: 7) / CL2 VL (SEQ ID NO: 38), scFv (scFv, part only; not given: linker, domain order, tag, V domains shown, not shown: another chain or arm of the molecule; small tags and cut ends)
VH: B1 VH
VL: B1 VL with A95S, D97G
B7: CL1 VH (SEQ ID NO: 7) / CL7 VL (SEQ ID NO: 40), scFv (scFv, part only; not given: linker, domain order, tag, V domains shown, not shown: another chain or arm of the molecule; small tags and cut ends)
VH: B1 VH
VL: B1 VL with A95S, D97S, L98F
B8: antibody CL9 (antibody, human IgG4, V domains shown)
VH: B1 VH with R102K, L103F
VL: B1 VL with A95S, D97G, L100V
B9: CL1 VH (SEQ ID NO: 7) / CL7 VL (SEQ ID NO: 40), IgG4 (antibody, V domains shown)
VH: B1 VH
VL: B1 VL with A95S, D97S, L98F
notes: Form IgG4
B10: CL1 VH (SEQ ID NO: 7) / CL9 VL (SEQ ID NO: 12), IgG4 (antibody, V domains shown)
VH: B1 VH
VL: B1 VL with A95S, D97G, L100V
notes: Form IgG4
B11: antibody CL6 (antibody, human IgG4, V domains shown)
VH: B1 VH with L103F
VL: B1 VL with A95S
B12: antibody CL5 (antibody, human IgG4, V domains shown)
VH: B1 VH with L103F, F109Y
VL: B1 VL with A95S
B13: antibody CL2 (antibody, human IgG4, V domains shown)
VH: B1 VH with R102K, L103F, F109Y
VL: B1 VL with A95S, D97G
B14: CL1 VH (SEQ ID NO: 7) / CL2 VL (SEQ ID NO: 38), IgG4 (antibody, V domains shown)
VH: B1 VH
VL: B1 VL with A95S, D97G
notes: Form IgG4
B15: antibody CL7 (antibody, human IgG4, V domains shown)
VH: B1 VH with L103F
VL: B1 VL with A95S, D97S, L98F

Tests used:
[1] = biological target: hPD-1 (Sino Biological Inc., Catalog No.: 10377-H03H-B) (human) (UniProt Q15116); assay: BLI (Octet) as in Example 4, biotinylated hPD-1 on streptavidin biosensor
Chain of hPD-1 (Sino Biological Inc., Catalog No.: 10377-H03H-B) (human) (Q15116 25-167): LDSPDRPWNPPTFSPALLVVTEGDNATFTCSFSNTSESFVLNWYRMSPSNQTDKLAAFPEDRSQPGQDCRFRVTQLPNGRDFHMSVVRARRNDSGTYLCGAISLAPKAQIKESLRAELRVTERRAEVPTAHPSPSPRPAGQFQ

[2] = biological target: T1, hPD-1 (Sino Biological Inc., Catalog No.: 10377-H03H-B) (human, UniProt Q15116 25-167); assay: as above
T1 construct: Bought protein; also called human PD-1; purified hPD-1
T1 sequence (Q15116 25-167): as above
Procedure: (§1) A streptavidin biosensor was pre-wetted by immersing in PBS in a well for 10 minutes, and then the biosensor was equilibrated with PBS for 2 minutes. The biosensor was immersed in the solution of 20 μg/mL biotinylated hPD-1 in PBS for 5 minutes to couple with biotinylated hPD-1, and then was equilibrated with PBS for 2 minutes. The biosensors were placed in wells containing antibody solutions of various concentrations (0.125 to 2 nM, SDS-PAGE purity >99%) to observe their binding to the anti-PD-1 antibody, and the binding was monitored and measured for 30 minutes. After the biosensor was transferred to PBS, dissociation was monitored and measured for 90 minutes. The observed binding and dissociation rates (kbinding and kdissociation) were fitted with a 1:1 binding global fit model containing all test concentrations, and the equilibrium binding constant KD was calculated.
The amino acid sequences of VL and VH regions of the related antibodies are shown in the sequence listing.

[3] = biological target: T1, hPD-1 (Sino Biological Inc., Catalog …); assay: ELISA, hPD-1 coated on the plate
Procedure: The binding of the antibodies to hPD-1 was determined by enzyme-linked immunosorbent assay (ELISA). hPD-1 was coated on a 96-well plate by incubation overnight at 4° C. After coating, the plate was washed 5 times with PBST. […] After the binding, the plate was washed 5 times with PBST. The resulting solution was incubated at room temperature in PBST that contained peroxidase (HRP)-labeled goat anti-mouse IgG solution diluted to 1/10000 for 1 hour, washed again, and developed with TMB.

[4] = biological target: T2, hPD-1 on hPD-1-expressing Jurkat cells (Promega, Catalog No.: J1252) (human, UniProt Q15116 25-288); assay: cell-based or functional assay
T2 sequence (Q15116 25-288): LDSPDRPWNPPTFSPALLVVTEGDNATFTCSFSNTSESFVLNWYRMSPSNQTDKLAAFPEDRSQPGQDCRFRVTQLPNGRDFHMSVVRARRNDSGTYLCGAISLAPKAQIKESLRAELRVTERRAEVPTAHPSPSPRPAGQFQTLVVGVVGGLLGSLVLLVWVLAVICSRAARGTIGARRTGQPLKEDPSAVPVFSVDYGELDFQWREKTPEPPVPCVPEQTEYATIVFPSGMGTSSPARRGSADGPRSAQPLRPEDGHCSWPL

[5] = biological target: T2, hPD-1 on hPD-1-expressing Jurkat cells …; assay: flow cytometry, blocking of 1 ug/mL unlabeled hPD-L1 binding to hPD-1-expressing Jurkat cells
Procedure: The blocking of ligand binding was assayed by flow cytometry. […] The mixture was placed on ice for 30 minutes, washed 3 times with FACS buffer (PBS containing 0.3% BSA), and incubated with PE-labeled goat anti-human Fc on ice for another 30 minutes. Cells were washed three more times with FACS buffer and analyzed by flow cytometry. Data were analyzed using nonlinear regression of Prism software, and IC₅₀ values were calculated.

[6] = biological target: T1, hPD-1 (Sino Biological Inc., Catalog …); assay: BLI (ForteBio Octet), biotinylated hPD-1 on streptavidin biosensor, antibody in solution, 1:1 global fit
Procedure: The assay was performed by coupling a hPD-1 fusion protein to a streptavidin biosensor using biotin.
as §1

[7] = biological target: T1, hPD-1 (Sino Biological Inc., Catalog …); assay: SPR (Biacore), antibody captured on protein A chip, PD-1 in solution 0.625-10 nM, 1:1 Langmuir fit
Procedure: A protein A chip was used for detection. […] Then the flow rate was adjusted to 30 μl/min, and PD-1 solutions of different concentrations (0.625 nM, 1.25 nM, 2.5 nM, 5 nM, and 10 nM) were fed in sequence, with a binding time of 180 s and a dissociation time of 1,200 s.

Binder	Kd [1] [nM]	Kd [2] [nM]	EC50 [3] [nM]	further results
B1	0.082	–	–	–
B2	0.143	–	–	–
B3	0.518	–	–	–
B4	–	0.076	–	–
B5	–	0.0207	0.208	Assay for the functional activity EC50 [4]: 0.269 µg/mL; IC50 [5]: 0.77 nM; Kd [6]: 0.0207 nM; koff [6]: 4.11e-05 s⁻¹; kon [6]: 1.98e+06 M⁻¹ s⁻¹; Kd [7]: 0.606 nM; koff [7]: 0.0005 s⁻¹; kon [7]: 825000 M⁻¹ s⁻¹
B6	0.447	–	–	–
B7	0.149	–	–	–
B8	–	–	0.594	–
B9	–	0.061	–	–
B10	–	0.229	–	–
B11	–	–	1.34	–
B12	–	–	0.399	Assay for the functional activity EC50 [4]: 0.932 µg/mL
B13	–	–	0.451	–
B14	–	0.189	–	–
B15	–	–	0.346	–

Reference: US20220204623A1 (BIO THERA SOLUTIONS, published 2022)
